Target: survivin peptide coating antigen, not stated which (SEQ ID NO:4 or SEQ ID NO:27)
Experiment: indirect ELISA; coating peptide not stated

B1: mAb 30H3D2 (antibody, IgG1, V domains shown)
VH: EVQLVESGGDLVKPGGSLKLSCAASGFTFSSYGMSWVRLTPDKRLEWVATISSGGSHTYYPDSVRGRFTISRDNAKNTLYLQMSSLKSEDTAMYYCARHPIYYYISSYAMDYWGQGTSVTVSS
VL: DVVMTQTPLSLPVSLGDQASISCRSSQSLVHSTGNTYLHWYLQKPGQSPKLLIYKVSNRFSGVPDRFGGSGSGTDFTLKISRVEAEDLGVYFCSQSTHVPPTFGGGTKLEIK
B1 showed a titer (highest dilution with signal to blank ratio >2:1) (dilution (1:x)) of 512000.

B2: mAb 2C2E7 (antibody, IgG2b, V domains shown)
VH: QIQLVQSGPELKKPGETVKISCKASGYTFTTYGMSWVKQAPGRGLKWMGWINPYSGVPTYAVDFKGRFAFSLETSASTAYLQINNLKNEDTATYFCARGGRRGDFGYWGQGTTLTVSS
VL: QIGLTQSPAIMSASPGEKVTMTCSASSSISYMHWYQQKPGTSPKTWIYDTSKLASGVPARFSGSGSGTSYSLTISSMEAEDAATYYCHQRSSHHTFGGGTKLEIK
Binder B2 has a titer (highest dilution with signal to blank ratio >2:1) (dilution (1:x)) of 512000.

Reference: patent US20200377613A1
